Target: nucleosomes decorated with both H3KC4me3 and H3K9ac or H3K14ac
Test: pull-down; 130 pmol recombinant nucleosome (biotinylated 601 Widom DNA, weak TATA) on magnetic streptavidin beads, 500 µg HeLa nuclear extract, 2–3 hours at 4°C; 20 mM HEPES pH 7.5, 150 mM NaCl, 0.2 mM EDTA, 20% glycerol, 0.1% NP-40, 1 mM DTT; no competitor DNA; immunoblot of eluted proteins

TFIID complex (from UniProt P21675 1-1893; Q6P1X5 1-1199; Q5VWG9 1-929; O00268 1-1085; Q15542 1-800; P49848 1-677; Q15545 1-349; Q7Z7C8 1-310; Q16594 1-264; Q12962 1-218; Q15544 1-211; Q16514 1-161; Q15543 1-124; P20226 1-339)
fold binding compared to H3KC4me3 alone: 1.2 to 1.4 fold

Source: publication PMC3770614
